Assay results from patent US20240254222A1 (Bayer, published 2024).
Numbering of substitutions follows the chain as printed.

T1: Human Semaphorin3A-Sema Domain, TPP-19068 (human, UniProt Q14563 21-569)
T1 construct: produced inhouse in HEK293-6E; also called human monovalent Sema3A domain
T1 sequence: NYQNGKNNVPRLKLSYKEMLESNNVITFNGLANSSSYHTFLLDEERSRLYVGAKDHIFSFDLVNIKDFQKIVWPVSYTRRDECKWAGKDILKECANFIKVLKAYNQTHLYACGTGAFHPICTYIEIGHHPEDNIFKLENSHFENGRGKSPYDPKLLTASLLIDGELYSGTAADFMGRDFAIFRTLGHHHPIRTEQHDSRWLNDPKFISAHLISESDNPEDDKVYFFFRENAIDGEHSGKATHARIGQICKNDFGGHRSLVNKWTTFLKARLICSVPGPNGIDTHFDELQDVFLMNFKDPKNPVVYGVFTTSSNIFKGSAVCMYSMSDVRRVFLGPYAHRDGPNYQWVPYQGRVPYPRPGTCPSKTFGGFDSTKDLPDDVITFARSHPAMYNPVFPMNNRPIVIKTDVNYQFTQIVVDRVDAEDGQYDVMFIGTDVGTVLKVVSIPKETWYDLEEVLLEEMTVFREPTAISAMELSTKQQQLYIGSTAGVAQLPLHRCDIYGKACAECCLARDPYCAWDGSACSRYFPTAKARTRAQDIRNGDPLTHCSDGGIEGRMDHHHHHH

T2: Mouse Semaphorin3A-Fc (R&D Systems), TPP-13357 (mouse, UniProt O08665 21-747)
T2 construct: range 21-747; R&D Systems 5926-S3; also called mouse Sema3A-Fc
T2 sequence (looked up): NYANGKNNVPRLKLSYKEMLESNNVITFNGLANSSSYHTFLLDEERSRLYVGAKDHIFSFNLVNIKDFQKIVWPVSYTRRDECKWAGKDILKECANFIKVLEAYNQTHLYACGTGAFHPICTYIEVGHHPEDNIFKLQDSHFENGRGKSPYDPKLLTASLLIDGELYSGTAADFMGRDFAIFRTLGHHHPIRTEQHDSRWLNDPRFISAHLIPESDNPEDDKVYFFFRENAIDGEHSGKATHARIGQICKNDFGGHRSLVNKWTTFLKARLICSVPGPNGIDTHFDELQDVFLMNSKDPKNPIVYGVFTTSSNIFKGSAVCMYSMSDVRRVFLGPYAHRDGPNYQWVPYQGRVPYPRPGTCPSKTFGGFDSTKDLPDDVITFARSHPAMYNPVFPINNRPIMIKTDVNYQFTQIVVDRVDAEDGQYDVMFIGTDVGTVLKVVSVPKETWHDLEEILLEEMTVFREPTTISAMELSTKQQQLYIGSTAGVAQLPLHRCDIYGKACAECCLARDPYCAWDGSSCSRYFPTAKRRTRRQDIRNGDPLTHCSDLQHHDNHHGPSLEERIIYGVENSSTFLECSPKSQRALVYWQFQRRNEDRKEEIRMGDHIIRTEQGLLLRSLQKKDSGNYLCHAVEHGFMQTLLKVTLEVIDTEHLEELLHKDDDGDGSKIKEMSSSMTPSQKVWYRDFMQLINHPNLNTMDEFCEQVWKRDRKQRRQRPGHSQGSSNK

B1: TPP-23298 (antibody, human IgG4 S228P, lambda, V domains shown)
VH: EVQLLESGGGLVQPGGSLRLSCAASGFTFYSYAMSWVRQAPGKGLEWVSAIGTGGDTYYADSVKGRFTISRDNSKNTLYLQMNSLRAEDTAVYYCARRDDYTSRDAFDYWGQGTLVTVSS
VL: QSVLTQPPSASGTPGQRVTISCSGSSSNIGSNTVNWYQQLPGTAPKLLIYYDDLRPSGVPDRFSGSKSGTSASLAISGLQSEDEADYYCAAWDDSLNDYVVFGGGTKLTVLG
B2: TPP-30788 (antibody, human IgG1, kappa, V domains shown)
VH: EVQLVESGGGLVQPGGSLRLSCAASGFTFSSYYMSWVRQAPGKGLEWVSTIIKSGGYAYYPDSVKDRFTISRDNSKNTLYLQMSSLRAEDTAVYYCVRGGQGAMDYWGQGTTVTVSS
VL: EIVLTQSPATLSLSPGERATLSCRASQSIGDYLHWYQQKPGQAPRLLIKYASQSISGIPARFSGSGSGTDFTLTITSLEPEDFAVYYCQQGYSFPYTFGGGTKLEIKR
notes: prior art, WO 2020/225400; also called BI clone I; Böhringer (BI) Clone I
B3: TPP-30791 (antibody, human IgG1, kappa, V domains shown)
VH: B2 VH with V12L, P14L, Y80N, S84N, R98K
VL: B2 VL with T76S
notes: prior art, WO 2020/225400; also called BI clone IV; Böhringer (BI) Clone IV
B4: TPP-30789 (antibody, human IgG1, kappa, V domains shown)
VH: B2 VH with T28P
VL: B2 VL
notes: prior art, WO 2020/225400; also called BI clone II; Böhringer (BI) Clone II
B5: TPP-30790 (antibody, human IgG1, kappa, V domains shown)
VH: B2 VH with P14L, S84N, R98K
VL: B2 VL with K49Y, T76S
notes: prior art, WO 2020/225400; also called BI clone III; Böhringer (BI) Clone III
B6: TPP-17755 (antibody, human IgG1, lambda, V domains shown)
VH: EVQLLESGGGLVQTGGSLRLSCAASGFTFSDYAMSWVRQAPGKGLEWVSWIYYDSGSKYYADSVKGRFTISRDNSKNTLYLQMNSLRAEDTAVYYCAKLNGDFDYWGQGTLVTVSS
VL: QSVLTQPPSASGTPGQRVTISCSGSSSNIGNNDVSWYQQLPGTAPKLLIYADSHRPSGVPDRFSGSKSGTSASLAISGLRSEDEADYYCGAWDSSLSGYVFGGGTKLTVLG
notes: also called Samsung; Samsung Prior Art F11
B7: TPP-15370 (antibody, human IgG1, lambda, V domains shown)
VH: B1 VH with Y30S, A33G, S35H, K64M, Y109V
VL: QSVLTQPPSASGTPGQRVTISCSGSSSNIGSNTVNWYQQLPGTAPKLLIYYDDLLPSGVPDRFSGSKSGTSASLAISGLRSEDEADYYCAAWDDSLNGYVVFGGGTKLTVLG
notes: human IgG1; also called IgG1, hit from panning; parental mAb
B8: TPP-15374 (antibody, human IgG1, lambda, V domains shown)
VH: EVQLLESGGGLVQPGGSLRLSCAASGFTFSSYEMNWVRQAPGKGLEWVSGISWNSGSIGYADSVKGRFTISRDNSKNTLYLQMNSLRAEDTAVYYCARSGYSSSWFDPDFDYWGQGTLVTVSS
VL: QSVLTQPPSASGTPGQRVTISCTGSSSNIGAGYDVHWYQQLPGTAPKLLIYGNSNRPSGVPDRFSGSKSGTSASLAISGLRSEDEADYYCSSYAGSNPYVVFGGGTKLTVLG
notes: as for B7

target: T3, Human Semaphorin3A-Fc (R&D Systems), TPP-13211 (human); test: ELISA, signal on TPP-13211 divided by signal on TPP-19068
T3 construct: R&D Systems 1250-S3; also called recombinant human Sema3A-Fc chimera
Text: In the in vivo situation Sema3A exists in both forms side by side.

T3 sequence (chain, as listed by the source limits assumed): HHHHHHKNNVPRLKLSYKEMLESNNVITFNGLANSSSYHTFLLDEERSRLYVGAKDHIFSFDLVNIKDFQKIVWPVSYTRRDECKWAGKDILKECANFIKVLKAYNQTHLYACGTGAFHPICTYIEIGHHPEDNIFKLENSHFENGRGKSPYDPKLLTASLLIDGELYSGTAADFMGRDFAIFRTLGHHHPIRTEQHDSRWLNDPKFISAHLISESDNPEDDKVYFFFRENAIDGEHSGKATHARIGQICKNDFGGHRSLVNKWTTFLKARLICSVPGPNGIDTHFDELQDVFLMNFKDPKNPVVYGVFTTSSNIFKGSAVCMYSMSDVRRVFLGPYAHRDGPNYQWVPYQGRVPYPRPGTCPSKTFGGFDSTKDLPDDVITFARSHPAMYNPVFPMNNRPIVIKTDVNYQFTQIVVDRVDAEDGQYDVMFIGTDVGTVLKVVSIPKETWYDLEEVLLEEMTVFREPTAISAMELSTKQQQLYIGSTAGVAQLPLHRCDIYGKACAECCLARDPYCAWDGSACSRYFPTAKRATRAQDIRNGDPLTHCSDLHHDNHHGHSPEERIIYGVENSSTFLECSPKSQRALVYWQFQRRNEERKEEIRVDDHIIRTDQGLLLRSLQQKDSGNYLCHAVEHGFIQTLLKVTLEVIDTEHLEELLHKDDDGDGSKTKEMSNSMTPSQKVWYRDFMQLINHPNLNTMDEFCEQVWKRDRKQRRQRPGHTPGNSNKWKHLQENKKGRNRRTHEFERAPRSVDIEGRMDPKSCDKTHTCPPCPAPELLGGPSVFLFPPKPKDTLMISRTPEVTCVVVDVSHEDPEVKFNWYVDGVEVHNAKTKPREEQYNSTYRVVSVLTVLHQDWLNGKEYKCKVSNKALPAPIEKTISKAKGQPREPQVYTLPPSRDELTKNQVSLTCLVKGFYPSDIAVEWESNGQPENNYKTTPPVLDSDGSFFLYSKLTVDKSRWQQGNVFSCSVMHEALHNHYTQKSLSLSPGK

| Ratio ELISA binding TPP-13211/TPP-19068 | Binder |
| --- | --- |
| 0.66 | B1 |
| 0.19 | B2 |
| 0.21 | B3 |
| 0.2 | B4 |
| 0.19 | B5 |

target: T1, Human Semaphorin3A-Sema Domain, …; test: SPR, 100 nM TPP-19068, binding experiment
Protocol: (§1) To assess the binding kinetics and affinity of anti-Sema3A antibodies as well as their species cross-reactivity profile, binding assays were conducted using surface plasmon resonance (SPR). Binding assays were performed on a Biacore T200 instrument or on a Biacore 8K+ instrument (Cytiva) at 25° C. using assay buffer HBS P+, 300 mM NaCl, 0.75 mM CaCl₂, 2.5 mM MgCl₂, 1 mg/ml BSA, 0.05% NaN₃. Antibodies were captured either via anti-human Fc IgGs (“Human antibody capture kit”, Order No. BR100839, Cytiva) or in case of Fc-tagged analytes by anti-human Fab IgGs (“Human Fab capture kit”, Order No. 28958325, Cytiva) covalently amine coupled to a Series S CM5 sensor chip (Cytiva). The amine coupling was carried out according to the manufacturer's instructions using 1-ethyl-3-(3-dimethylaminopropyl) carbodiimide hydrochloride (EDC), N-hydroxysuccinimide (NHS) and ethanolamine HCl, pH 8.5 (“Amine Coupling Kit” BR-1000-50, Cytiva.). For phage display hits Fc-tagged human and mouse Sema3A was used as analytes in a concentration range from 1.56-200 nM. Human, mouse, cynomolgus, rat, dog and pig monovalent Sema3A domain were used as analytes in a concentration series from […] in multi cycle kinetics mode or in 100 nM for binding analysis only. The sensor surface was regenerated with glycine pH 2.0 after each antigen injection. Obtained sensorgrams were double referenced (subtraction of reference flow cell signal and buffer injection) and were fitted to a 1:1 Langmuir binding model to derive kinetic data using the Biacore T200 Evaluation software.

| Kd | Binder |
| --- | --- |
| 6.2 nM | B6 |
| 0.13 nM | B1 |
| 0.098 nM | B2 |

target: T2, Mouse Semaphorin3A-Fc (R&D Systems), …; test: SPR, captured IgG1, Sema3A-Fc analyte
Protocol: as §1

| Kd | Binder |
| --- | --- |
| 3.2 nM | B7 |
| 18 nM | B8 |

target: T3, Human Semaphorin3A-Fc (R&D Systems), …; test: SPR, captured IgG1, Sema3A-Fc analyte
Protocol: as §1

| Kd | Binder |
| --- | --- |
| 2.8 nM | B7 |
| 18 nM | B8 |
